IntAct's records for PubMed 17666011

How the values were obtained:
anm12_arath PRMT12 = molecular target: T1, anm12_arath PRMT12 (UniProt O82210)
T1 sequence: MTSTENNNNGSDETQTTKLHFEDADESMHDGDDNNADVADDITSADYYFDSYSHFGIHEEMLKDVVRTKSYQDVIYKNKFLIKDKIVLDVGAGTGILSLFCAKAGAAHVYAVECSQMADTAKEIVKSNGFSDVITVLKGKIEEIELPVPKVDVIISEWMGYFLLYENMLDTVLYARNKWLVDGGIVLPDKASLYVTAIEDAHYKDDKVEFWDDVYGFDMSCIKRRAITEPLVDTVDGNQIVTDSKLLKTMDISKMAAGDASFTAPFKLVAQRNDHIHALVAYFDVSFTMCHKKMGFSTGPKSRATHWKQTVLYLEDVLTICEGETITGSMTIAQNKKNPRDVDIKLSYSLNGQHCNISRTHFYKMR

anm11_arath PRMT11 = molecular target: T2, anm11_arath PRMT11 (UniProt Q9SU94)
T2 sequence: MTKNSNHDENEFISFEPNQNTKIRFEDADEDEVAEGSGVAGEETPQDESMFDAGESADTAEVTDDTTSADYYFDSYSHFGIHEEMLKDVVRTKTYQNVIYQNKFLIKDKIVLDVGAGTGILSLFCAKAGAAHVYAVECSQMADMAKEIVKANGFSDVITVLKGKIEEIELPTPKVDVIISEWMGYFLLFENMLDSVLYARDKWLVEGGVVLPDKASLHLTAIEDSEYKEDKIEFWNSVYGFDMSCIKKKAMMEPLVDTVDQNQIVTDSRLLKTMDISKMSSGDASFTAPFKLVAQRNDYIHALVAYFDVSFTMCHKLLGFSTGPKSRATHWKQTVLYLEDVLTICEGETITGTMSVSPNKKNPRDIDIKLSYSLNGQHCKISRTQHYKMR

- effect of a mutation on the interaction (anm12_arath PRMT12): disrupting interaction
- effect of a mutation on the interaction (anm11_arath PRMT11): disrupting interaction
Substance: Histone H4 (Homo sapiens) (from UniProt P62805) R20K
